Two compounds from article PMC12435366, “Maleic anhydride derived diphosphines: adaptable chelators for receptor-targeted ^99mTc, ^64Cu and ^188Re radiotracers” (Chemical Science, 2025) can be followed below.

This data set in a line: Stability of radiotracers in PBS / kit-based reaction solution. The class given is physicochemical. To be noted: ^99mTc and ^188Re radiotracers; radio-HPLC. The protocol:
The new radiotracers, [^64Cu(DP^An-PSMAt)2]^+ and [^64Cu(DP^MEP-PSMAt)2]^+, were purified using reverse-phase HPLC, reformulated in aqueous PBS (phosphate buffered saline) solution, and incubated with human serum at 37 °C. […] Both ^64Cu radiotracers were also stable in aqueous PBS solution (see SI).
Both [^99mTcO2(DP^An-PSMAt)2]^+ and [^99mTcO2(DP^MEP-PSMAt)2]^+, prepared using kits, were incubated at 37 °C in human serum for up to 24 h. […] [^188ReO2(DP^An-PSMAt)2]^+ and [^188ReO2(DP^MEP-PSMAt)2]^+, prepared using kits and then isolated using reverse-phase HPLC in >98% radiochemical purity, were also incubated in human serum under the same conditions. […] These ^99mTc and ^188Re radiotracers were also stable when left to stand in kit-based reaction solutions, or in PBS solution (see SI for full chromatograms).
64Cu: A solution of either [ 64Cu(DPAn-PSMAt)2]+ or [64Cu(DPMEP-PSMAt)2]+ (purified, >98% RCP, 0.6– 0.8 MBq in 8–20 µL PBS) was diluted with PBS (350 µL total volume) and incubated at 37 °C. After 24 h, the sample was analysed by analytical C18 radio-HPLC (Method 2). […]
Each aliquot was treated with an equal amount of ice -cold MeCN to precipitate serum proteins and centrifuged (10,000 rpm, 10 min). The supernatant was isolated, MeCN evaporated under a stream of N2, and the resultant solution analysed by analytical C18 radio-HPLC (Method 2). […]

Take `COCCOc1ccc(P(/C(C(=O)O)=C(/C(=O)NCCOCCOCCOCCOCCC(=O)NCCCC[C@H](NC(=O)N[C@@H](CCC(=O)O)C(=O)O)C(=O)O)P(c2ccc(OCCOC)cc2)c2ccc(OCCOC)cc2)c2ccc(OCCOC)cc2)cc1` [[^99mTcO2(DP^MEP-PSMAt)2]^+, metal not drawn]: the “stability when left to stand in kit-based reaction solutions, or in PBS solution” value is “stable”.
As for `COc1ccc(P(/C(C(=O)O)=C(/C(=O)NCCOCCOCCOCCOCCC(=O)NCCCC[C@H](NC(=O)N[C@@H](CCC(=O)O)C(=O)O)C(=O)O)P(c2ccc(OC)cc2)c2ccc(OC)cc2)c2ccc(OC)cc2)cc1` [[^99mTcO2(DP^An-PSMAt)2]^+, metal not drawn], the entry is “stable”.
